{"source": "paper PMC5607963", "binders": {"B1": {"name": "αE-catenin homodimer, P26231 1-906 (natural protein)", "chain": "MTAVHAGNINFKWDPKSLEIRTLAVERLLEPLVTQVTTLVNTNSKGPSNKKRGRSKKAHVLAASVEQATENFLEKGDKIAKESQFLKEELVVAVEDVRKQGDLMKSAAGEFADDPCSSVKRGNMVRAARALLSAVTRLLILADMADVYKLLVQLKVVEDGILKLRNAGNEQDLGIQYKALKPEVDKLNIMAAKRQQELKDVGNRDQMAAARGILQKNVPILYTASQACLQHPDVAAYKANRDLIYKQLQQAVTGISNAAQATASDDAAQHQGGSGGELAYALNNFDKQIIVDPLSFSEERFRPSLEERLESIISGAALMADSSCTRDDRRERIVAECNAVRQALQDLLSEYMGNAGRKERSDALNSAIDKMTKKTRDLRRQLRKAVMDHVSDSFLETNVPLLVLIEAAKNGNEKEVKEYAQVFREHANKLIEVANLACSISNNEEGVKLVRMSASQLEALCPQVINAALALAAKPQSKLAQENMDLFKEQWEKQVRVLTDAVDDITSIDDFLAVSENHILEDVNKCVIALQEKDVDGLDRTAGAIRGRAARVIHVVTSEMDNYEPGVYTEKVLEATKLLSNTVMPRFTEQVEAAVEALSSDPAQPMDENEFIDASRLVYDGIRDIRKAVLMIRTPEELDDSDFETEDFDVRSRTSVQTEDDQLIAGQSARAIMAQLPQEQKAKIAEQVASFQEEKSKLDAEVSKWDDSGNDIIVLAKQMCMIMMEMTDFTRGKGPLKNTSDVISAAKKIAEAGSRMDKLGRTIADHCPDSACKQDLLAYLQRIALYCHQLNICSKVKAEVQNLGGELVVSGVDSAMSLIQAAKNLMNAVVQTVKASYVASTKYQKSQGMASLNLPAVSWKMKAPEKKPLVKREKQDETQTKIKRASQKKHVNPVQALSEFKAMDSI"}}, "biological_target": "F-actin polymerized from rabbit skeletal muscle G-actin, stabilized with phalloidin (rabbit), P68135", "assay": "co-sedimentation", "conditions": "remark: other sources report otherwise", "data": [{"binder": "B1", "values": [{"measurement": "Kd", "value": 2900, "unit": "nM"}]}]}
